B1: skeletal muscle β1a subunit, GFP-tagged (pcDNA3-β1a-GFP) (natural protein)
chain: not shown
B2: β1a subunit with the substitution M293A, GFP-tagged (pcDNA3-β1aM293A-GFP) (natural protein)
chain: not shown

How the values were obtained:
Assay in all cases: FRAP
[1] = biological target: CaV1.2 α1C subunit, untagged (pβA-α1C) (UniProt P22002-5 1-2142)
[2] = biological target: CaV1.1 α1S with deletion of amino acid 344 (pc-α1Sdel1(Δ344)) (UniProt P07293 1-1873, Δ344)
[3] = biological target: CaV1.1 α1S with deletion of amino acids 344–345 (pc-α1Sdel2(Δ344–345)) (UniProt P07293 1-1873, Δ344–345)
[4] = biological target: CaV1.1 α1S with deletion of amino acids 344–346 (pc-α1Sdel3(Δ344–346)) (UniProt P07293 1-1873, Δ344–346)
[5] = biological target: CaV1.1 α1S subunit, untagged (pc-α1S) (UniProt P07293 1-1873)

Row | Binder | R75 (fractional fluorescence recovery 75 s after bleaching) [1] [%] | R75 (fractional fluorescence recovery 75 s after bleaching) [2] [%] | R75 (fractional fluorescence recovery 75 s after bleaching) [3] [%] | R75 (fractional fluorescence recovery 75 s after bleaching) [4] [%] | R75 (fractional fluorescence recovery 75 s after bleaching) [5] [%]
1 | B1 | 23.6 | 20.9 | 19.9 | 22.8 | 
2 | B2 |  |  |  |  | 45.2

— PMC4148589 (Journal of cell science, 2013)
